The data set is described as follows: label from the status in PepcDB records.
Consider “MIEKKRIEIFPKHMGFFPYMWFVYLLFPIYHLAQASGWKLVIGSGMLIIFIVTYRQLYFVQRTFVFWACIQMVLIFLFALFYNPFMIFFGFFTASAMGFAPNKKVFRVLLCSLVIMLGAFLFVNMNQLTTTSLVNIVPMFILMILTPFGMRNFNQKKMLRNQLDQANEQIKDLVKREERQRIARDLHDTLGHTLSLITLKSQLVEKLIVKNPERASAEAKEITQTSRTALKQLRELISDMRMITVEEELEQIKAILQAANIELEVRQEARSSSLSPIEQNIVGMCLREAVTNVVKHSKATRCAVSVLESQGELILKVEDNGIGLTDQNHDGNGIRGMKERIALIDGFVELGTINPGTLLTVKVPVVIRTGKDEVRA”, for which the protein production result is recorded as “failed”. For “MIELQLELFPGHIAGLLLVELSKPVEDFASIFIQGTWECALLDAGVVFHKSQLLTAVNVAFQRFEAGRLKTHSLHNEVMLALSAKLSIRDGLAAVRFSWEKTRCLVVAVDPPASFPQAAESTSNALAAKVRHFPEGANELFNELLVHVDKPSIQNLYGTDIDPHWICTKIATVEYVRQLR” the value was “failed”; for “MIEMLGIKIPLRKTTILPVLSFTLSSYFLTNFIFYLQYTDYTGLVEFLLIGAPFIGRAITPITYPFLMSRINIERITYLSLGNMAILDILEFFMGTDTLALILLRVATGILFGLATSAAVELATQSRSKIIMGMTMGGWALGWILSALMSFLMGKMVLITSSFSLVFFLLIKRSNIDKKLFSNSGSISIAFSWKALLIFLLGFEPAYILQLIPSLLGENNAIEETIIAYSISFIAYIILPSIGNIRISSLLTSLMIGILGFTSFITLKAWMFIPFTVLGLGLNSLLPIIIKLMKVEVTKIGPSMNLASLSGFLIPSLVSIGDIEINSAILTLISSISLGAIVYKNLKITA”, “failed”. For “MIEQELTYQDLRIPSSEIYEAMGYKDSIPDQMVIDETNTLLKRVIPLLRPRFAFFFMEGTLDIEKETLSVQSIHPPTVNPIQDTIPTRSPEQNTFSTQSKSTVFSVGKTIARQLRGSEAFVFFAATAGTEFEVFQHTLQQEEDMVKIYIADSLGSIIAEKTADCMEVALAEYIREKNWKHTNRYSPGYCGWHVSEQQKLFPLFPIAAPCGIRLTDSSLMVPIKSVSGVIGTGTNVRKLEYTCGLCTYENCYRKRKHR” the value was “not failed”. As for “MIESAVGKAAYSTAAFLIKSLPVVVIAIYAVSYSIKKGYLERFALFLQPALRKFGVSEFAVISFATCFVSPTASYSMLSQAWREKKVDDREVIAISFLNSFPSVFSHLYAYFIPFVIPVLGFAGVVYTAVRFAVAAIKSLIGLLLSRSRKNSDTSAPELSPLSVSQNVVRIGAVMAATYFIVSLLSQLGVFDLMAESLKFLPFRAEAVTIAIVEFFNIRSAVVTAASFIDAGLEWKWAVIGLILGNVISFSTRSVKHSLPMHLSLFGGFGVKIVLLNSIVTLILDIFFVVLLLLV”, the protein production result was “failed”. In the case of “MIETLITFIIIFGIIVAIHEYGHLWWAKRSGILVREYAVGMGPKIFAHQAKDGTLYTIRILPLGGYVRLAGWGDDKTEIKKGQAASLVVSKSEVVNPEAENSVSNIVRRINLSEHVELEEAIPMLITEYDFEKELFIEGEVFGEIKRYSVDHDATIIEEDGTEVRIAPLDVQYQSAGVFHKMLTNFGGPLNNFILGIIAFIVLTFVQGGVPSTTNAIGQVEKGTPAYNAGLKAGDKIEAVNGTKTADWNNVVTEISGSKGKELKLEVSRSGKSETLSVTPKKMDGSYRVGIMQSMKTGFFDKITGGFVQAGQSATAIFKALGSLIARPSLDKLGGPVAIYQLSGQAARAGFPAIVYLLAMLSINLGIVNLFPIPVLDGGKIVLNIIEAIRGKALSQEKESIITMVGVVFMLVLFVAVTWNDILRAFVN”, the protein production entry is listed as “failed”. “MIFERIKSEGLAHLSYLIGSGDEAIVIDPRRDCQVYFDLARSKGMKIKYIFETHRNEDYIIGSLELEKLTDAGIYHGSGVDFKYGNILKKDRQEFIFGALKLTALHTPGHTDESMSYVLTDPDAGKEPIMVFTGDALFVGDVGRTDLYGPEEVPRLAANLYDSIFNKILPLGDGVILCPAHGAGSLCGGAISNREYSTLGLEKVQNPVLKKTEKEEFVKFKLEEKLEFPPYFKKMEQYNLQGPPLLQSLPIPKLLSPDEFKAEMEKGAVVVDTRMPHSFGGALIKGSYSIWLEGLPSFAGWMLPYDKPILLVLEEKEQLETAVRYLVRLGYDNMRGFLNGGIAAWYMEALQIDGFNLLSVHDLKSKLEKDEEIVILDVRSNEEWEEGHIEGARHIYVGHVEENLDEIPKDCPIVVYCGSARRSNIAASVLKKHGYRKIYNVLGSMVAWKNAGYEVVK”: the protein production entry was “failed”. For “MIFIKKPSLKALSCASILFALSGCVPPNQFGEDYSRDVCKTKRDELIALDNHFSSNMVAGGIIGTLAGAGLGAAAAAATNGDIITATLIGAAAGMAVGAGSAYWNELSKQHGEGELLLFSLLGDMRRDEEKVTKAQIALDNLMSCRRTEAAQVHADYRAKRISAQEAKTRMEAIRRRAEKDVSVAKDINKGVQDRRGSYEYAFEQSKKIKTKNKKDKKKIEKTYTSMDKYCGSYNTSVQVAETSLNTEFKADGFTSSYLIYPDSTPNTQISCR” the value was “failed”. Next, “MIFMRKVVAEVSIIPLGKGASVSKYVKKAIEVFKKYDLKVETNAMGTVLEGDLDEILKAFKEAHSTVLNDVDRVVSSLKIDERKDKENTIERKLKAIGEL”: “not failed”; “MIFNSARLKDMDIQYQILRQIEKYQTIIIHRHQRPDPDAVGSQLGLKNGLQAAFPEKNIYAVGKEITGLAWVGSMDIIPDSTYENALVIVIDTANVARIDDDRFKNGDKLIKIDHHPNDEPYGDLMWVEPGRSSCSEMVTFFLDDNIPLLLTDEAARNLYIGIVGDTGRFMYASTPETFIAVSKLYHFSIDYERVNREMSSISLVQARFSGKVYDEMKVEDHVGWITLTKAEIEAGHLGNEGTNFVVGMFGSIKEVLVWANFIENDDGSYRVRLRSKGPNVNEIAKLHNGGGHDMASGAKAKDQTEIDQIIKELKESANIFSTSLEKTAK”: “failed”; “MIFSQRIYFIILFHVLLILVTAGTGLWLVVSHTGYIIGGILLLCSLFQIGALTRQLNTFNRKIRLFFDAVQDKDNMLYFPEANVGKEQAQLNRSLNRLNDLLARTKGESHKQEHFYQSLLEEVPSGVLAWDDSGRIIIANSAAFSLLKCNRLYTETQLAQLLNATGIRKSLSISEKKMILDGETITILSIKDIGDELSDKENESWSKLTHVLTHEIMNTIAPILSLSQTLSERPDINEKSARGLRIIQAQSERLMEFTESFRHLSYLPHPEKRRFALTEMLRNLEELLQSDFRERGIRFMLQCVPDPIETDGDPNQLSQVFLNLLKNAMQALEGQADGRIILRVRRADRLQVEIEDNGPGIPEEIREQIFIPFFTTKTEGSGIGLSLCKQIIRQHDGHLSIRESRPGQTIFSLDLP”: “failed”. As to “MIGGSLDAFIGSVHRMAAALDGTIELVCGAFSSNAARSIQTGEALHLPKERIYASYEEMIVQEAQLPADVRMQFVSIVTPNHLHAQPALLALKHGFHVLCEKPLAFSVAEAEQLGIQVKETGLLFGLTHTYTAYPMVKEARDLIAKGKLGTIRKIIVEYPQGWLSAPIESDGQKQAGWRTDPAQAGLSCCVGDIGTHAENIAEYITGLKITELSADVSSVVAGRKLDDDANILLRFDNGAKGVLIASQIANGEENELKIRVYGEHAGLEWLQSEPNTLIVKQNDQPTQLRRAGANHSYLSEHARLHCRIPAGHPEGYIEAMANIYRNFSKAVHSFEDQITHNPLLDYPTIEDGIRGMKFIETVIISGKENATWKQLLEHHHHHH”, the protein production entry was “not failed”. Regarding “MIGKVLEGRYEIVSELGGGGMARVYRGQDRLLNRNVTIKILREQYASDKEFLARFQREAQAVASLSHPNVVSIYDVGQEDDLHYLIMEYVEGRSLKDLISERAPLPPLEAIDISLQICDALEHAHENGVIHRDIKPHNILITRNGRVKVTDFGIAQAVSEVTMSQSGTMIGSVHYLAPEQARGGVIGATADIYSLGIVLYEMLTGDLPFHGETPVAVALKHLQENPRPVRELNPNVPPALERVVMRTLEKDPARRYPSAAALRSDLLAVRNALADATFATQVLPAIETPDPPSTLPKPRRRPRVWAWVLMALLFLGLAAAGLWAGFRYYLAVGETLVPSVVGLPEGQALEQLAAAGLRGQVIARQYDASVPAGQVMAQDPGPNQRVRRGRVVALTVSQGARLVRVPSVIGETERNARLILENANLKVAADTLKVYHPSIPAGSVVDQNPPANTQQPEGTEVRLIISKGPEPQFTTAPSVVGLSLAEAQQKLLEAKLKQGTLTYQRSDNQFPGYIIAQDPREGSNVLQGSAINLVVSQGPGPVQKQVGVTIDPAPDDKDHEVRIVVTDAKGTNEVLKKKQKMGQQIQATINYFGKGKLQVFRDGNVIYEQDLQ”, the protein production entry is listed as “failed”.

For the origin of these results see a protein production outcome set (Wang et al. 2014).
